The target of test [1] is BSA (control) (bovine) (UniProt P02769). As to the kind of experiment: ELISA, BSA control wells, sFlt at 1800 ng/mL, detected with RD-1 + RD-2 anti-sFlt.
Test [2] shares this target. Description: ELISA, BSA control wells, sFlt at 600 ng/mL, detected with RD-1 + RD-2 anti-sFlt. (An ELISA detects its analyte on a solid surface through an enzyme-linked reagent.)
For test [3] the target is unchanged. The test is described as above. This is another data set of the same source.
The target is the same in test [4]. Description: ELISA, BSA control wells, sFlt at 66.67 ng/mL, detected with RD-1 + RD-2 anti-sFlt.
Test [5] has the same target. As to the kind of experiment: ELISA, BSA control wells, sFlt at 200 ng/mL, detected with RD-1 + RD-2 anti-sFlt.
Test [6] shares this target. Described as above. This is another data set of the same source.
The target is the same in test [7]. Description: ELISA, BSA control wells, sFlt at 66.67 ng/mL, detected with RD-1 + RD-2 anti-sFlt. The source holds these as a separate data set.

Sequence of BSA (control) (bovine) (P02769 25-607 limits assumed): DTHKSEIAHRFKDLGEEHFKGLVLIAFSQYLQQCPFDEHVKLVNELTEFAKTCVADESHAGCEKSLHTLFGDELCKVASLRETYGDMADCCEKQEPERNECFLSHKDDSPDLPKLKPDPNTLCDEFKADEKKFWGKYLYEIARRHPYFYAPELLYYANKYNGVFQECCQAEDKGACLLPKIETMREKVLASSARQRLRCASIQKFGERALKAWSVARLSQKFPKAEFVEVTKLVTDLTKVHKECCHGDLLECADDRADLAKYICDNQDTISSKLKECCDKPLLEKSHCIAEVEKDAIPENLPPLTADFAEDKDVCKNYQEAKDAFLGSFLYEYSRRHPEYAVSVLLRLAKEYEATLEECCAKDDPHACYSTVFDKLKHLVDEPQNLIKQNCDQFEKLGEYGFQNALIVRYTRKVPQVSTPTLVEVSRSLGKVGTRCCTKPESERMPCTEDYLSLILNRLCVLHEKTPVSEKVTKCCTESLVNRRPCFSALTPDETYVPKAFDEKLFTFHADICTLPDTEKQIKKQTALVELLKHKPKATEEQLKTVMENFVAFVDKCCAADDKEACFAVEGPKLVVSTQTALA
Sequence of Full length sFlt (soluble fms-like tyrosine kinase 1, sFlt-1), Scios Inc. Lot# 9225-89 (from UniProt P17948 27-656) (receptor) (P17948 other isoform, or with tags, fused parts or gaps limits assumed): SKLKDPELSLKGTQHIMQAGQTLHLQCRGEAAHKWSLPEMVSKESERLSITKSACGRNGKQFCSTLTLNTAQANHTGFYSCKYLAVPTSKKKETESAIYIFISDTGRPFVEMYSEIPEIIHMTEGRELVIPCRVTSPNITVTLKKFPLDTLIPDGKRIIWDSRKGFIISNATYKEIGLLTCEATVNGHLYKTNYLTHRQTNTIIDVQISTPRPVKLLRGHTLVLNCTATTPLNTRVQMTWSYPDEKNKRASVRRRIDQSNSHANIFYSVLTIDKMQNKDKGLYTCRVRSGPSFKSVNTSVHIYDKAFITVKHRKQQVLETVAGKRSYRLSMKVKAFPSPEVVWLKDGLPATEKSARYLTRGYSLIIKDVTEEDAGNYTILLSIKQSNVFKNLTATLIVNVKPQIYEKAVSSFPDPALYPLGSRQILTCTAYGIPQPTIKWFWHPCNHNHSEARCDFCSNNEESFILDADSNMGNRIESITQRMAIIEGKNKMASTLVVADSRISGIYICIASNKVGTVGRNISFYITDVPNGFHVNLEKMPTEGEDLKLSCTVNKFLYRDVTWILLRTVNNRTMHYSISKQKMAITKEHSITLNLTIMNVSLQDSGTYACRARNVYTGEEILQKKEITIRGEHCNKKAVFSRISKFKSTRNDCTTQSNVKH
Sequence of Full length sFlt (soluble fms-like tyrosine kinase 1, sFlt-1), Scios Inc. Lot# 9225-89 (from UniProt P17948 27-656) (P17948 other isoform, or with tags, fused parts or gaps limits assumed): as above

On to “Full length sFlt (soluble fms-like tyrosine kinase 1, sFlt-1), Scios Inc. Lot# 9225-89 (from UniProt P17948 27-656)”, for which, in the test with BSA (control) (bovine) [1], the OD at 492 nm stood at 0.004 OD.
As to “Full length sFlt (soluble fms-like tyrosine kinase 1, sFlt-1), Scios Inc. Lot# 9225-89 (from UniProt P17948 27-656) (receptor)”, the OD at 492 nm with BSA (control) (bovine) [2] was 0.008 OD; with BSA (control) (bovine) [3], 0.006 OD; with BSA (control) (bovine) [4], 0.003 OD; with BSA (control) (bovine) [5], 0.01 OD; with BSA (control) (bovine) [1] it was 0.009 OD; with BSA (control) (bovine) [6] it was 0.005 OD. Further, the OD at 492 nm with BSA (control) (bovine) [7] came to 0.02 OD.

Source of the values: US20090176264A1.
